Numbered stars: 1 amine (or outer) side, 2 acyl side, 3 side chain; on linkers, the order of the positions; unused ones are H or OH. Bridge positions count the residues as written; N and C are the ends. Square brackets hold non-standard residues; d marks the D form. Ends that are not written are not given here. TBMB = c1c(C[*:1])cc(C[*:3])cc1C[*:2]; Fl = fluorescein; Sar = CNCC(=O)O
How the values were obtained:
human integrin αvβ3 [1] = biological target: T1, human integrin αvβ3 (human, UniProt P06756 31-992; P05106 27-718, limits assumed); experiment: human FP direct binding; n=2
human integrin αvβ3 [2] = biological target: T1, human integrin αvβ3; experiment: human FP direct binding; column 'Mean', n=2
human integrin αvβ3 [3] = biological target: T1, human integrin αvβ3; experiment: human FP direct binding; column 'Mean', n=9

T1 sequence (P06756 31-992 limits assumed, chain 1 of 2): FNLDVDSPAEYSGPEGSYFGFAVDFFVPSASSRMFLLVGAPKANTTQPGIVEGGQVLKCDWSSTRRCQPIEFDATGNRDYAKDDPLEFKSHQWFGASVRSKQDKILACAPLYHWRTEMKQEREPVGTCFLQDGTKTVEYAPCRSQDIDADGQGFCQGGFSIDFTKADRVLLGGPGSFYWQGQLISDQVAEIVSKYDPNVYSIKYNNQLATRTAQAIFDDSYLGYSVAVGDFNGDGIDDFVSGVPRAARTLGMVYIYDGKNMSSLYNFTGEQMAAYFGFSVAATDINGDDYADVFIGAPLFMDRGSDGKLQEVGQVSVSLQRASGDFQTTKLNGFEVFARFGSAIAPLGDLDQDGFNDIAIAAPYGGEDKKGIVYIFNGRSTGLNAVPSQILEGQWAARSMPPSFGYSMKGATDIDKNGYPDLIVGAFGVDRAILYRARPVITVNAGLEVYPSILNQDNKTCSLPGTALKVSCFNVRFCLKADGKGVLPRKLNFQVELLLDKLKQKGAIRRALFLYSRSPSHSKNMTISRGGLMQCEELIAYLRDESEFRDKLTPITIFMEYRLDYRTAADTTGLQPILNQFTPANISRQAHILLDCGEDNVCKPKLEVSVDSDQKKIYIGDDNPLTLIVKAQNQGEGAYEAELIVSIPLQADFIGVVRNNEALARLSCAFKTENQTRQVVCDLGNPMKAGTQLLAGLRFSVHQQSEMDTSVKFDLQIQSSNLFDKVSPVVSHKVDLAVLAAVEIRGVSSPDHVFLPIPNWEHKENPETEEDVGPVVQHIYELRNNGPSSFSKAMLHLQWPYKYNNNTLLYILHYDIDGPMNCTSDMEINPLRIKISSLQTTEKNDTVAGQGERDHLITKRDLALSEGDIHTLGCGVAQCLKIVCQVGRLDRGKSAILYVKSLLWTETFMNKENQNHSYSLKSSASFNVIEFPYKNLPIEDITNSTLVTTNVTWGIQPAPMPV
T1 sequence (P05106 27-718 limits assumed, chain 2 of 2): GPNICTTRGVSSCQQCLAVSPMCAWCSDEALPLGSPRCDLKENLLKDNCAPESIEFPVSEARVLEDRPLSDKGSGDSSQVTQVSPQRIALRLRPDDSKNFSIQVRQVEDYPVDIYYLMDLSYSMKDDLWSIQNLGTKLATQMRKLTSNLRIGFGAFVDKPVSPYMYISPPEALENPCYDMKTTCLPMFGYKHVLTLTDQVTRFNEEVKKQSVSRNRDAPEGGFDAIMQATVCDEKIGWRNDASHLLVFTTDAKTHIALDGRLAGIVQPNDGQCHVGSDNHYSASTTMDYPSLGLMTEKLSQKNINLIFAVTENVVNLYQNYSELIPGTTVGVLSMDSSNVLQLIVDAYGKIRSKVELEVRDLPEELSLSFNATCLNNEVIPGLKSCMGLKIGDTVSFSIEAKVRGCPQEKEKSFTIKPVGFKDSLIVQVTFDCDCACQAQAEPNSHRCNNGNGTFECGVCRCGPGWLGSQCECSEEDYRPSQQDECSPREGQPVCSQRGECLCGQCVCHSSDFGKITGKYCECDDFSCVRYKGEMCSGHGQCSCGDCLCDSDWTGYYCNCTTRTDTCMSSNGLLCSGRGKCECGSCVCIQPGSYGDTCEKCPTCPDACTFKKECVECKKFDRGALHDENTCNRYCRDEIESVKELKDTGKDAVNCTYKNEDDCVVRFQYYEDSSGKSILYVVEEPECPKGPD

Kd (human integrin αvβ3 [1]) [nM]	Kd (human integrin αvβ3 [2]) [nM]	Kd (human integrin αvβ3 [3]) [nM]	Binder
2	2		Ac-CILRPNCDLDGRCA[Sar][Sar][Sar][Sar][Sar][Sar]K (linker 1-7-13 via TBMB; not fully specified (residue 21); also: Fl on the C-terminal K, Fluorescent bicyclic peptide) [BCY2577]
1	1		Fl-G[Sar][Sar][Sar][Sar][Sar]ACLDHMECRGDMDC (linker 8-14-20 via TBMB, Fluorescent bicyclic peptide) [BCY2573]
		9	ACLDHMECRGDMDCAXXXXXXK (Sar6 (six sarcosines); fluorescein (Fl) on the C-terminal K; Ci, Cii and Ciii bound to the TBMB scaffold, Fluorescent bicyclic peptide) [BCY2572]

From US20220119488A1, “BICYCLIC PEPTIDE LIGANDS SPECIFIC FOR INTEGRIN ALPHA-V-BETA-3” (priority 2019, published 2022)
